Measurements taken from article PMC3941021 (Nature structural & molecular biology, 2013).
Read-outs that look alike come from different tables or passages of the source.

Legend:
Assay in all cases: crystal structure
[1] = target: lysine-methylated EphA4 ectodomain (EphA4_(ecto)), human (human, UniProt P54764 20-547, lysine-methylated)
[2] = target: T1, EphA4 ectodomain (EphA4_(ecto)), human (human, UniProt P54764 20-547)
[3] = target: T1, EphA4 ectodomain (EphA4_(ecto)), human; remark: listed apart in the source

T1 sequence (P54764 20-547): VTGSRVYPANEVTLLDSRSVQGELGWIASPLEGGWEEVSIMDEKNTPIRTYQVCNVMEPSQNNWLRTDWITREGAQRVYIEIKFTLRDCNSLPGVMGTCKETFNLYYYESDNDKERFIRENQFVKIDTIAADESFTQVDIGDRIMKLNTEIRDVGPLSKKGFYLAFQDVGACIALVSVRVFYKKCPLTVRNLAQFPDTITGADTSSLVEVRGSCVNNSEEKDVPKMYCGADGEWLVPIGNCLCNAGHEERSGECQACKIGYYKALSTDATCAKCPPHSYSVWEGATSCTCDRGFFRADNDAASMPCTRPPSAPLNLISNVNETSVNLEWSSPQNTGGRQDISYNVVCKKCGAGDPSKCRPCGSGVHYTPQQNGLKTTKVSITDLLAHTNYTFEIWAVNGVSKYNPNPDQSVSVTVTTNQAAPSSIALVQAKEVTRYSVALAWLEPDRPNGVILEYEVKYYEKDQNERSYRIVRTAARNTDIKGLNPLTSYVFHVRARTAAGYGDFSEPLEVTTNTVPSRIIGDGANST
Chain of lysine-methylated EphA4 ectodomain (EphA4_(ecto)), human (P54764 20-547): as above

B1: ephrinA5 receptor-binding domain (RBD), human, of the lysine-methylated complex sample (domain or fragment)
chain: AVADRYAVYWNSSNPRFQRGDYHIDVCINDYLDVFCPHYEDSVPEDKTERYVLYMVNFDGYSACDHTSKGFKRWECNRPHSPNGPLKFSEKFQLFTPFSLGFEFRPGREYFYISSAIPDNGRRSCLKLKVFVRPTNSCMK
modifications: lysine-methylated (the paper calls the EphA4_(ecto)-ephrinA5 RBD complex sample lysine-methylated)
B1: binds [1].

B2: ephrinA5 receptor-binding domain (RBD), human (domain or fragment)
chain: AVADRYAVYWNSSNPRFQRGDYHIDVCINDYLDVFCPHYEDSVPEDKTERYVLYMVNFDGYSACDHTSKGFKRWECNRPHSPNGPLKFSEKFQLFTPFSLGFEFRPGREYFYISSAIPDNGRRSCLKLKVFVRPTNSCMK
B2: binds [2].

B3: ephrinB3 receptor-binding domain (RBD), human (domain or fragment)
chain: GLSLEPVYWNSANKRFQAEGGYVLYPQIGDRLDLLCPRARPPGPHSSPNYEFYKLYLVGGAQGRRCEAPPAPNLLLTCDRPDLDLRFTIKFQEYSPNLWGHEFRSHHDYYIIATSDGTREGLESLQGGVCLTRGMKVLLRVGQ
B3: binds [3].
